According to publication PMC8934665, “AT-hook peptides bind the major and minor groove of AT-rich DNA duplexes”:

Tests used:
Settings in all cases: tags: none; hairpin, 9 bp stem, 4 nt loop
[1] = molecular target: T1, ATHP1 (AT-hook peptide 1) (mammalian (species ), UniProt P52926 26-34); assay: ITC; two-site model, site 1, n1 = 1.3; ITC, UV melting and fluorescence in 1xBPE (6 mM Na2HPO4, 2 mM NaH2PO4, 1 mM Na2EDTA, pH 7.0), ITC 10 uM DNA; native MS probably in ammonium acetate (concentration not given); temperature not stated
T1 chain: KRGRGRPRK

[2] = molecular target: T2, ATHP3 (AT-hook peptide 3) (mammalian (species ), UniProt P52926 74-83); assay: as above
T2 chain: KRPRGRPRKW

[3] = molecular target: T2, ATHP3 (AT-hook peptide 3); assay: ITC; two-site model, site 2, n2 = 1.1; ITC, UV melting and fluorescence in 1xBPE (6 mM Na2HPO4, 2 mM NaH2PO4, 1 mM Na2EDTA, pH 7.0), ITC 10 uM DNA; native MS probably in ammonium acetate (concentration not given); temperature not stated
[4] = molecular target: T1, ATHP1 (AT-hook peptide 1); assay: ITC; two-site model, site 2, n2 = 1.4; ITC, UV melting and fluorescence in 1xBPE (6 mM Na2HPO4, 2 mM NaH2PO4, 1 mM Na2EDTA, pH 7.0), ITC 10 uM DNA; native MS probably in ammonium acetate (concentration not given); temperature not stated
[5] = molecular target: T3, ATHP2 (AT-hook peptide 2) (mammalian (species ), UniProt P52926 45-53); assay: native IMS-MS; Hoechst 33258 in minor groove, 1:1:1 complex; ITC, UV melting and fluorescence in 1xBPE (6 mM Na2HPO4, 2 mM NaH2PO4, 1 mM Na2EDTA, pH 7.0), ITC 10 uM DNA; native MS probably in ammonium acetate (concentration not given); temperature not stated
T3 chain: PKRPRGRPK

GGATATTGCCCCCGCAATATCC (structured_DNA) [FL876]
Ka [1]: 1.9e+08 M⁻¹
Ka [2]: 1.1e+07 M⁻¹
Ka [3]: 1.1e+06 M⁻¹
Ka [4]: 4e+06 M⁻¹
binding result [5]: binds
